From patent publication US20070122903A1, “AMNIOTIC FLUID DERIVED CELLS” (priority 2005, published 2007)

Test system: cell line AFCA007 Clone A (AF-I)
Test: Differentiation of cells into multiple endocrine lineages (collagen type I/matrigel transwell culture with growth factors)
Assay type: cell-based, human
Conditions: 14 days; for expression of HNF-3 beta: DMEM + 5% FBS
Protocol: Cells from the cell line AFCA007 Clone A (AF-I) at passage 8 were embedded in collagen type I (Becton Dickinson, CA) with 1% growth-factor reduced matrigel matrix (Becton Dickinson), and seeded into 6-well transwell insert at 5×10^5 cells per well. The bottom well was seeded with human aortic endothelial cells passage 6 (Cambrex. MD). Cells were cultured with DMEM medium supplemented with 5% FBS and growth factors, which includes Cyclopamine, bFGF, EGF, BMP4-7, Activin A, Exendin 4, FGF4, all-trans retinoic acid and γ-secretase inhibitors for 14 days. Cultures were fed every other day. […] Treatment of cells with BMPs at high concentration, 50 ng/ml, also up-regualted the GATA4 expression.

B1: Activin A: growth factor added to the differentiation medium (protein, UniProt P08476 311-426, looked up)
Inhibin beta A chain: GLECDGKVNICCKKQFFVSFKDIGWNDWIIAPSGYHANYCEGECPSHIAGTSGSSLSFHSTVINHYRMRGHSPFANLKSCCVPTKLRPMSMLYYDDGQNIIKKDIQNMIVEECGCS
modifications: Inhibin beta A chain
notes: growth factor added to the differentiation medium
expression of HNF-3 beta: up-regulated

B2: BMP4: bone morphogenic protein, growth factor added to the differentiation medium (protein, UniProt P12644 293-408, looked up)
Bone morphogenetic protein 4: SPKHHSQRARKKNKNCRRHSLYVDFSDVGWNDWIVAPPGYQAFYCHGDCPFPLADHLNSTNHAIVQTLVNSVNSSIPKACCVPTELSAISMLYLDEYDKVVLKNYQEMVVEGCGCR
expression of HNF-3 beta: up-regulated

B3: FGF4: growth factor added to the differentiation medium (protein, UniProt P08620 31-206, looked up)
Fibroblast growth factor 4: APTAPNGTLEAELERRWESLVALSLARLPVAAQPKEAAVQSGAGDYLLGIKRLRRLYCNVGIGFHLQALPDGRIGGAHADTRDSLLELSPVERGVVSIFGVASRFFVAMSSKGKLYGSPFFTDECTFKEILLPNNYNAYESYKYPGMFIALSKNGKTKKGNRVSPTMKVTHFLPRL
PDX-1 expression (50 ng/ml): up-regulation
